The values below come from PMC8945619.

In the test the target is PECAM-1 (purified, immobilised on the sensor chip) (UniProt P16284). Kind of test: SPR. (In general: Surface plasmon resonance follows binding to a sensor surface in real time, without labels.)

Chain of soluble CD177 in complex with proteinase 3 (sCD177/PR3) (Q8N6Q3 22-408): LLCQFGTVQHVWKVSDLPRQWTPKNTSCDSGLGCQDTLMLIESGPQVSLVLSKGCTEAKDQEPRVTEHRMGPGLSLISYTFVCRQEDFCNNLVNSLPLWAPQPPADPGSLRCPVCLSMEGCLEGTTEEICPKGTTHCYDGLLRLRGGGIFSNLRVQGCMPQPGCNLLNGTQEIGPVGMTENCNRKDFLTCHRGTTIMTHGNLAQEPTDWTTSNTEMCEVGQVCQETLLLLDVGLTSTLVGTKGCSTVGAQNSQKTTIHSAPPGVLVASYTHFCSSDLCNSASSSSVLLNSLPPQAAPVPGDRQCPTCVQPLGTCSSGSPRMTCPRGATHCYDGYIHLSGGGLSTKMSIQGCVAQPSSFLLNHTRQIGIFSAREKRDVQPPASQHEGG
Chain of soluble CD177 in complex with proteinase 3 (sCD177/PR3) (P24158 28-248): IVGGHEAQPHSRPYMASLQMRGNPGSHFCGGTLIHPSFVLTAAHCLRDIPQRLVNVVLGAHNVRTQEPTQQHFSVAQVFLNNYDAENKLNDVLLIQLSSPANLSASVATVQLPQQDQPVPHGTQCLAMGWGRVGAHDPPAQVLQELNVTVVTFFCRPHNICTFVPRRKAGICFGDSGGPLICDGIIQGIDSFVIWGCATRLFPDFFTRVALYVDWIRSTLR
Chain of recombinant proteinase 3 (rPR3) (P24158 28-248): as above

Broadly, the Kd is the equilibrium constant for the complex coming apart. Read a low Kd as higher affinity. The substance “recombinant proteinase 3 (rPR3) (from UniProt P24158 28-248) (enzyme)” displayed a Kd of 49.8 nM.

“soluble CD177 in complex with proteinase 3 (sCD177/PR3) (from UniProt Q8N6Q3 22-408; P24158 28-248)”: the Kd was 7.39 nM. Against the preceding substance, the Kd is about 6.7-fold lower.
